According to the supplement of paper PMC5998384:

How the values were obtained:
HeLa Kyoto [1] = experiment: solubility change mitosis vs G1/S (difference of NP-40 vs SDS log2 ratios) (log2 ratio difference); higher = more soluble in mitosis
HeLa Kyoto [2] = experiment: solubility in G1/S (NP-40 vs SDS abundance) (log2 ratio); higher = more soluble; conditions: cell cycle stage: G1/S
HeLa Kyoto [3] = experiment: thermal stability score vs G1/S (z-score of summed log2 fold changes over temperatures); higher = more thermally stable than in G1/S
HeLa Kyoto [4] = experiment: melting temperature (median over replicates), in situ; higher = more thermally stable
[5] = cell cycle stage: early G1 (4.5 h after nocodazole release)
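For melting temperature (median over replicates), in situ in this document: HeLa Kyoto cells synchronized by double thymidine or nocodazole block, proteins quantified by TMT10plex mass spectrometry, three independent biological replicates.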
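For solubility change mitosis vs G1/S (difference of NP-40 vs SDS log2 ratios) in this document: synchronized HeLa Kyoto cells (double thymidine block for G1/S, nocodazole release for mitosis), protein amounts in NP-40 versus SDS lysates quantified by mass spectrometry, three biological replicates.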
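For solubility in G1/S (NP-40 vs SDS abundance) in this document: HeLa Kyoto cells arrested at G1/S by double thymidine block, proteins quantified by TMT10plex mass spectrometry in mild NP-40 versus SDS extracts, three biological replicates.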
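For thermal stability score vs G1/S (z-score of summed log2 fold changes over temperatures) in this document: synchronized HeLa Kyoto cells, proteins quantified by TMT10plex mass spectrometry, three biological replicates, mitosis taken 0.5 h after nocodazole release, G1/S directly after double thymidine block.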

Sequence | solubility change mitosis (log2) (HeLa Kyoto [1]) | solubility in G1/S (log2) (HeLa Kyoto [2]) | thermal stability score (HeLa Kyoto [3]; [5]) | thermal stability score (HeLa Kyoto [3]; cell cycle stage: mitosis) | melting temperature (HeLa Kyoto [4]; cell cycle stage: G1/S) [°C] | melting temperature (HeLa Kyoto [4]; cell cycle stage: mitosis) [°C]
MTSHYVIAIFALMSSCLATAGPEPGALCELSPVSASHPVQALMESFTVLSGCASRGTTGLPQEVHVLNLRTAGQGPGQLQREVTLHLNPISSVHIHHKSVVFLLNSPHPLVWHLKTERLATGVSRLFLVSEGSVVQFSSANFSLTAETEERNFPHGNEHLLNWARKEYGAVTSFTELKIARNIYIKVGEDQVFPPKCNIGKNFLSLNYLAEYLQPKAAEGCVMSSQPQNEEVHIIELITPNSNPYSAFQVDITIDIRPSQEDLEVVKNLILILKCKKSVNWVIKSFDVKGSLKIIAPNSIGFGKESERSMTMTKSIRDDIPSTQGNLVKWALDNGYSPITSYTMAPVANRFHLRLENNAEEMGDEEVHTIPPELRILLDPGALPALQNPPIRGGEGQNGGLPFPFPDISRRVWNEEGEDGLPRPKDPVIPSIQLFPGLREPEEVQGSVDIALSVKCDNEKMIVAVEKDSFQASGYSGMDVTLLDPTCKAKMNGTHFVLESPLNGCGTRPRWSALDGVVYYNSIVIQVPALGDSSGWPDGYEDLESGDNGFPGDMDEGDASLFTRPEIVVFNCSLQQVRNPSSFQEQPHGNITFNMELYNTDLFLVPSQGVFSVPENGHVYVEVSVTKAEQELGFAIQTCFISPYSNPDRMSHYTIIENICPKDESVKFYSPKRVHFPIPQADMDKKRFSFVFKPVFNTSLLFLQCELTLCTKMEKHPQKLPKCVPPDEACTSLDASIIWAMMQNKKTFTKPLAVIHHEAESKEKGPSMKEPNPISPPIFHGLDTLTVMGIAFAAFVIGALLTGALWYIYSHTGETAGRQQVPTSPPASENSSAAHSIGSTQSTPCSSSSTA [TGFBR3] | -0.094 | -0.155 | 1.1 | 2.26 | 53.8 | 54.4
MEFQAVVMAVGGGSRMTDLTSSIPKPLLPVGNKPLIWYPLNLLERVGFEEVIVVTTRDVQKALCAEFKMKMKPDIVCIPDDADMGTADSLRYIYPKLKTDVLVLSCDLITDVALHEVVDLFRAYDASLAMLMRKGQDSIEPVPGQKGKKKAVEQRDFIGVDSTGKRLLFMANEADLDEELVIKGSILQKHPRIRFHTGLVDAHLYCLKKYIVDFLMENGSITSIRSELIPYLVRKQFSSASSQQGQEEKEEDLKKKELKSLDIYSFIKEANTLNLAPYDACWNACRGDRWEDLSRSQVRCYVHIMKEGLCSRVSTLGLYMEANRQVPKLLSALCPEEPPVHSSAQIVSKHLVGVDSLIGPETQIGEKSSIKRSVIGSSCLIKDRVTITNCLLMNSVTVEEGSNIQGSVICNNAVIEKGADIKDCLIGSGQRIEAKAKRVNEVIVGNDQLMEI [EIF2B3] | -0.222 | -0.0277 | -0.882 | -0.4 | 50.5 | 50.7
MAAPGGRGRSLSGLLPAQTSLEYALLDAVTQQEKDSLVYQYLQKVDGWEQDLSVPEFPEGLEWLNTEEPISVYKDLCGKIVVLDFFTYCCINCIHLLPDLHALEHTYSDKDGLLIIGVHSAKFPNEKVLDNIKSAVLRYNITHPMVNDADASLWQELEVSCWPTLVILGPRGNMLFSLIGEGHKDKLFLYTSIALKYYKDRGQIRDNKIGIKLYKDSLPPSPLLFPGKVTVDQVTDRLVIADTGHHRILVVWKNGQIQYSIGGPNPGRKDGIFSESTFNSPQGVAIMNNIIYVADTENHLIRKIDLEAEKVSTVAGIGIQGTDKEGGAKGEQQPISSPWDVVFGTSGSEVQRGDILWIAMAGTHQIWALLLDSGKLPKKNELTKGTCLRFAGSGNEENRNNAYPHKAGFAQPSGLSLASEDPWSCLFVADSESSTVRTVSLKDGAVKHLVGGERDPMNLFAFGDVDGVGINAKLQHPLGVTWDKKRNLLYVADSYNHKIKVVDPKTKNCTTLAGTGDTNNVTSSSFTESTFNEPGGLCIGENGELLYVADTNNHQIKVMDLETKMVSVLPIFRSENAVVDGPFLVEKQKTLPKLPKSAPSIRLSPVTACAGQTLQFKLRLDLPSGSKLTEGVSSCWFLTAEGNEWLLQGQIAAGDIENISSQPTISLQIPDDCLSLEAIVSVSVFLYYCSADSSACMMKAILFSQPLQITDTQQGCIAPVELRYVF [NHLRC2] | -0.199 | 0.0639 | 0.332 | -0.145 | 52 | 52.1
MAAEREPPPLGDGKPTDFEDLEDGEDLFTSTVSTLESSPSSPEPASLPAEDISANSNGPKPTEVVLDDDREDLFAEATEEVSLDSPEREPILSSEPSPAVTPVTPTTLIAPRIESKSMSAPVIFDRSREEIEEEANGDIFDIEIGVSDPEKVGDGMNAYMAYRVTTKTSLSMFSKSEFSVKRRFSDFLGLHSKLASKYLHVGYIVPPAPEKSIVGMTKVKVGKEDSSSTEFVEKRRAALERYLQRTVKHPTLLQDPDLRQFLESSELPRAVNTQALSGAGILRMVNKAADAVNKMTIKMNESDAWFEEKQQQFENLDQQLRKLHVSVEALVCHRKELSANTAAFAKSAAMLGNSEDHTALSRALSQLAEVEEKIDQLHQEQAFADFYMFSELLSDYIRLIAAVKGVFDHRMKCWQKWEDAQITLLKKREAEAKMMVANKPDKIQQAKNEIREWEAKVQQGERDFEQISKTIRKEVGRFEKERVKDFKTVIIKYLESLVQTQQQLIKYWEAFLPEAKAIA [SNX2] | -0.226 | 0.143 | 0.424 | -0.352 | 51.4 | 51.2
MAASSLEQKLSRLEAKLKQENREARRRIDLNLDISPQRPRPTLQLPLANDGGSRSPSSESSPQHPTPPARPRHMLGLPSTLFTPRSMESIEIDQKLQEIMKQTGYLTIGGQRYQAEINDLENLGEMGSGTCGQVWKMRFRKTGHVIAVKQMRRSGNKEENKRILMDLDVVLKSHDCPYIVQCFGTFITNTDVFIAMELMGTCAEKLKKRMQGPIPERILGKMTVAIVKALYYLKEKHGVIHRDVKPSNILLDERGQIKLCDFGISGRLVDSKAKTRSAGCAAYMAPERIDPPDPTKPDYDIRADVWSLGISLVELATGQFPYKNCKTDFEVLTKVLQEEPPLLPGHMGFSGDFQSFVKDCLTKDHRKRPKYNKLLEHSFIKRYETLEVDVASWFKDVMAKTESPRTSGVLSQPHLPFFR [MAP2K7] | 0.0421 | 0.237 | 1.35 | 1.39 | 49.9 | 50
MLTNLRIFAMSHQTIPSVYINNICCYKIRASLKRLKPHVPLGRNCSSLPGLIGNDIKSLHSIINPPIAKIRNIGIMAHIDAGKTTTTERILYYSGYTRSLGDVDDGDTVTDFMAQERERGITIQSAAVTFDWKGYRVNLIDTPGHVDFTLEVERCLRVLDGAVAVFDASAGVEAQTLTVWRQADKHNIPRICFLNKMDKTGASFKYAVESIREKLKAKPLLLQLPIGEAKTFKGVVDVVMKEKLLWNCNSNDGKDFERKPLLEMNDPELLKETTEARNALIEQVADLDDEFADLVLEEFSENFDLLPAEKLQTAIHRVTLAQTAVPVLCGSALKNKGIQPLLDAVTMYLPSPEERNYEFLQWYKDDLCALAFKVLHDKQRGPLVFMRIYSGTIKPQLAIHNINGNCTERISRLLLPFADQHVEIPSLTAGNIALTVGLKHTATGDTIVSSKSSALAAARRAEREGEKKHRQNNEAERLLLAGVEIPEPVFFCTIEPPSLSKQPDLEHALKCLQREDPSLKVRLDPDSGQTVLCGMGELHIEIIHDRIKREYGLETYLGPLQVAYRETILNSVRATDTLDRTLGDKRHLVTVEVEARPIETSSVMPVIEFEYAESINEGLLKVSQEAIENGIHSACLQGPLLGSPIQDVAITLHSLTIHPGTSTTMISACVSRCVQKALKKADKQVLEPLMNLEVTVARDYLSPVLADLAQRRGNIQEIQTRQDNKVVIGFVPLAEIMGYSTVLRTLTSGSATFALELSTYQAMNPQDQNTLLNRRSGLT [GFM2] | -0.0596 | -0.0849 | 1.87 | 1.26 | 49.2 | 49.3
